Consider 145 variants from the supplement of paper PMC10567573.

The chains are these.
B1: LRRC45 (parent)
chain: FQTRQEMTSMSAELKMRAIQAEER
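Note: lentivirally expressed fusions sorted by FACS into six bins by GFP to DsRed ratio, PSI derived from sequencing read proportions per bin multiplied by bin number.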

In this series the parent is B1. In words: protein stability index of a GFP-peptide fusion (GPS, HEK-293T) (PSI 1-6); higher = more stable. As to conditions: c terminus: a fixed tail appended.
For FQTRQEMTSMSAELKMRAIQAQER [E22Q], the protein stability index came out at 3.37.
Then FQTRQEMTSMSAELKMRAIQARER [E22R], with 3.18; and FQTRQEMTSMSAELKMRAIQAFER [E22F], with 2.56.
Consider FQTRQEMTSMSAELKMRAIQAGER [E22G], for which the protein stability index was found to be 2.53.
Then FQTRQEMTSMSAELKMRAIQAWER [E22W], with 2.56; and FQTRQEMTSMSAELKMRAIQASER [E22S], with 3.28.
Then FQTRQEMTSMSAELKMRAIQAYER [E22Y], with 3.9; and FQTRQEMTSMSAELKMRAIQAIER [E22I], with 3.1; and FQTRQEMTSMSAELKMRAIQAHER [E22H], with 2.92.
The value for FQTRQEMTSMSAELKMRAIQAMER [E22M] was 3.64.
Regarding FQTRQEMTSMSAELKMRAIQANER [E22N], the protein stability index was found to be 3.44.
The value for FQTRQEMTSMSAELKMRAIQADER [E22D] was 3.64; that for FQTRQEMTSMSAELKMRAIQAVER [E22V] was 3.18.
The value for FQTRQEMTSMSAELKMRAIQALER [E22L] was 2.59; that for FQTRQEMTSMSAELKMRAIQAAER [E22A] was 3.56; that for FQTRQEMTSMSAELKMRAIQAPER [E22P] was 2.74.
Then FQTRQEMTSMSAELKMRAIQAKER [E22K], with 3.57; and FQTRQEMTSMSAELKMRAIQATER [E22T], with 3.23.
For the variant FQTRQEMTSMSAELKMRAIQACER [E22C], the protein stability index was found to be 3.18.
Then FQTRQEMTSMSAELKMRAIQAEAR [E23A], with 3.16.
In the case of FQTRQEMTSMSAELKMRAIQAECR [E23C], the protein stability index came out at 2.61.
The value for FQTRQEMTSMSAELKMRAIQAEYR [E23Y] was 2.88; that for FQTRQEMTSMSAELKMRAIQAEDR [E23D] was 3.33.
The value for FQTRQEMTSMSAELKMRAIQAEWR [E23W] was 2.26; that for FQTRQEMTSMSAELKMRAIQAEGR [E23G] was 3.56.
Then FQTRQEMTSMSAELKMRAIQAEKR [E23K], with 3.53; and FQTRQEMTSMSAELKMRAIQAESR [E23S], with 3.52; and FQTRQEMTSMSAELKMRAIQAEMR [E23M], with 3.16.
For the variant FQTRQEMTSMSAELKMRAIQAEQR [E23Q], the protein stability index came to 4.11.
The value for FQTRQEMTSMSAELKMRAIQAEVR [E23V] was 3.22; that for FQTRQEMTSMSAELKMRAIQAETR [E23T] was 3.16.
Then FQTRQEMTSMSAELKMRAIQAEIR [E23I], with 3.7; and FQTRQEMTSMSAELKMRAIQAEPR [E23P], with 3.81.
As for FQTRQEMTSMSAELKMRAIQAEHR [E23H], the protein stability index is 3.39.
For the variant FQTRQEMTSMSAELKMRAIQAERR [E23R], the protein stability index was 3.54.
Turning to FQTRQEMTSMSAELKMRAIQAEFR [E23F], the protein stability index is 2.99.
The value for FQTRQEMTSMSAELKMRAIQAELR [E23L] was 3.1.
Then FQTRQEMTSMSAELKMRAIQAENR [E23N], with 3.32; and FQTRQEMTSMSAELKMRAIQAEES [R24S], with 4.3; and FQTRQEMTSMSAELKMRAIQAEEA [R24A], with 4.19.
FQTRQEMTSMSAELKMRAIQAEEQ [R24Q]: the protein stability index was determined as 4.5.
Regarding FQTRQEMTSMSAELKMRAIQAEED [R24D], the protein stability index worked out at 4.29.
The value for FQTRQEMTSMSAELKMRAIQAEET [R24T] was 3.96; that for FQTRQEMTSMSAELKMRAIQAEEI [R24I] was 3.94; that for FQTRQEMTSMSAELKMRAIQAEEM [R24M] was 3.54.
The value for FQTRQEMTSMSAELKMRAIQAEEK [R24K] was 4.26; that for FQTRQEMTSMSAELKMRAIQAEEC [R24C] was 3.4; that for FQTRQEMTSMSAELKMRAIQAEEH [R24H] was 4.01.
The value for FQTRQEMTSMSAELKMRAIQAEEN [R24N] was 4.05.
As to FQTRQEMTSMSAELKMRAIQAEEG [R24G], the protein stability index came to 4.18.
The value for FQTRQEMTSMSAELKMRAIQAEEW [R24W] was 2.85; that for FQTRQEMTSMSAELKMRAIQAEEL [R24L] was 4.05.
As for FQTRQEMTSMSAELKMRAIQAEEV [R24V], the protein stability index came to 3.67.
For FQTRQEMTSMSAELKMRAIQAEEF [R24F], the protein stability index turned out to be 3.19.
For the variant FQTRQEMTSMSAELKMRAIQAEEY [R24Y], the protein stability index was found to be 3.71.
For the variant FQTRQEMTSMSAELKMRAIQAEEP [R24P], the protein stability index was found to be 3.88.
The value for FQTRQEMTSMSAELKMRAIQAEEE [R24E] was 4.5; that for FQTRQEMTSMSAELKMNAIQAEER [R17N] was 4.07; that for FQTRQEMTSMSAELKMTAIQAEER [R17T] was 4.08.
Then FQTRQEMTSMSAELKMSAIQAEER [R17S], with 3.43; and FQTRQEMTSMSAELKMLAIQAEER [R17L], with 3.95; and FQTRQEMTSMSAELKMMAIQAEER [R17M], with 4.18.
Turning to FQTRQEMTSMSAELKMVAIQAEER [R17V], the protein stability index was determined as 3.75.
Then FQTRQEMTSMSAELKMWAIQAEER [R17W], with 2.3.
The value for FQTRQEMTSMSAELKMYAIQAEER [R17Y] was 3.67; that for FQTRQEMTSMSAELKMIAIQAEER [R17I] was 3.94.
Then FQTRQEMTSMSAELKMQAIQAEER [R17Q], with 3.89; and FQTRQEMTSMSAELKMPAIQAEER [R17P], with 4.33; and FQTRQEMTSMSAELKMKAIQAEER [R17K], with 4.25.
Turning to FQTRQEMTSMSAELKMRAIQVEER [A21V], the protein stability index was found to be 3.59.
Then FQTRQEMTSMSAELKMRAIQGEER [A21G], with 3.97; and FQTRQEMTSMSAELKMRAIQWEER [A21W], with 3.43.
The value for FQTRQEMTSMSAELKMRAIQFEER [A21F] was 3.89.
Then FQTRQEMTSMSAELKMRAIQCEER [A21C], with 3.68; and FQTRQEMTSMSAELKMRAIQREER [A21R], with 3.8; and FQTRQEMTSMSAELKMRAIQMEER [A21M], with 3.57.
FQTRQEMTSMSAELKMRAIQDEER [A21D]: the protein stability index turned out to be 4.63.
Then FQTRQEMTSMSAELKMRAIQHEER [A21H], with 4.03.
Then FQTRQEMTSMSAELKMRAIQEEER [A21E], with 4.32; and FQTRQEMTSMSAELKMRAIQIEER [A21I], with 3.49.
The value for FQTRQEMTSMSAELKMRAIQNEER [A21N] was 4.15; that for FQTRQEMTSMSAELKMRAIQYEER [A21Y] was 3.76.
As for FQTRQEMTSMSAELKMRAIQPEER [A21P], the protein stability index is 3.89.
Then FQTRQEMTSMSAELKMRAIQQEER [A21Q], with 3.79; and FQTRQEMTSMSAELKMRAIQTEER [A21T], with 3.83.
The value for FQTRQEMTSMSAELKMRAIQLEER [A21L] was 4.
The value for FQTRQEMTSMSAELKMRAIQSEER [A21S] was 3.81; that for FQTRQEMTSMSAELKMRAIQKEER [A21K] was 3.76; that for FQTRQEMTSMSAELKMRAINAEER [Q20N] was 3.83.
As to FQTRQEMTSMSAELKMRAIEAEER [Q20E], the protein stability index stood at 4.34.
The value for FQTRQEMTSMSAELKMRAIPAEER [Q20P] was 3.76; that for FQTRQEMTSMSAELKMRAIRAEER [Q20R] was 3.2; that for FQTRQEMTSMSAELKMRAITAEER [Q20T] was 3.9.
Then FQTRQEMTSMSAELKMRAIHAEER [Q20H], with 3.98; and FQTRQEMTSMSAELKMRAIYAEER [Q20Y], with 3.08.
For the variant FQTRQEMTSMSAELKMRAIVAEER [Q20V], the protein stability index amounted to 3.28.
Then FQTRQEMTSMSAELKMRAISAEER [Q20S], with 4.11.
Then FQTRQEMTSMSAELKMRAICAEER [Q20C], with 3; and FQTRQEMTSMSAELKMRAIAAEER [Q20A], with 4.3.
Take FQTRQEMTSMSAELKMRAIIAEER [Q20I]: the protein stability index came to 2.8.
Then FQTRQEMTSMSAELKMRAILAEER [Q20L], with 3.57; and FQTRQEMTSMSAELKMRAIMAEER [Q20M], with 3.52; and FQTRQEMTSMSAELKMRAIKAEER [Q20K], with 3.5.
Then FQTRQEMTSMSAELKMRAIWAEER [Q20W], with 2.74.
Then FQTRQEMTSMSAELKMRAIFAEER [Q20F], with 2.26; and FQTRQEMTSMSAELKMRAIDAEER [Q20D], with 3.99.
With FQTRQEMTSMSAELKMRAIGAEER [Q20G], the protein stability index worked out at 3.62.
Then FQTRQEMTSMSAELKMRTIQAEER [A18T], with 3.95.
The value for FQTRQEMTSMSAELKMRHIQAEER [A18H] was 3.33; that for FQTRQEMTSMSAELKMRGIQAEER [A18G] was 3.81.
Then FQTRQEMTSMSAELKMRCIQAEER [A18C], with 3.69; and FQTRQEMTSMSAELKMRRIQAEER [A18R], with 3.96; and FQTRQEMTSMSAELKMRPIQAEER [A18P], with 3.45.
As for FQTRQEMTSMSAELKMRQIQAEER [A18Q], the protein stability index turned out to be 3.85.
With FQTRQEMTSMSAELKMRMIQAEER [A18M], the protein stability index stood at 3.73.
Then FQTRQEMTSMSAELKMRSIQAEER [A18S], with 3.82; and FQTRQEMTSMSAELKMRFIQAEER [A18F], with 3.51; and FQTRQEMTSMSAELKMRIIQAEER [A18I], with 3.75.
Then FQTRQEMTSMSAELKMRWIQAEER [A18W], with 3.54; and FQTRQEMTSMSAELKMRNIQAEER [A18N], with 3.88; and FQTRQEMTSMSAELKMRVIQAEER [A18V], with 3.41.
Then FQTRQEMTSMSAELKMRDIQAEER [A18D], with 4.33.
As to FQTRQEMTSMSAELKMRKIQAEER [A18K], the protein stability index turned out to be 3.72.
The value for FQTRQEMTSMSAELKMRYIQAEER [A18Y] was 3.69; that for FQTRQEMTSMSAELKMREIQAEER [A18E] was 4.08; that for FQTRQEMTSMSAELKMRLIQAEER [A18L] was 3.92.
The value for FQTRQEMTSMSAELKMRATQAEER [I19T] was 4.21.
Turning to FQTRQEMTSMSAELKMRAQQAEER [I19Q], the protein stability index was found to be 4.09.
For the variant FQTRQEMTSMSAELKMRAPQAEER [I19P], the protein stability index amounted to 3.84.
The value for FQTRQEMTSMSAELKMRAEQAEER [I19E] was 4.55; that for FQTRQEMTSMSAELKMRARQAEER [I19R] was 4.19.
The value for FQTRQEMTSMSAELKMRAWQAEER [I19W] was 3.04; that for FQTRQEMTSMSAELKMRANQAEER [I19N] was 4.27.
The value for FQTRQEMTSMSAELKMRAKQAEER [I19K] was 4.68.
Regarding FQTRQEMTSMSAELKMRASQAEER [I19S], the protein stability index was found to be 4.38.
Then FQTRQEMTSMSAELKMRACQAEER [I19C], with 3.96.
Then FQTRQEMTSMSAELKMRADQAEER [I19D], with 4.73.
Then FQTRQEMTSMSAELKMRAAQAEER [I19A], with 4.53.
In the case of FQTRQEMTSMSAELKMRAGQAEER [I19G], the protein stability index was 3.89.
Consider FQTRQEMTSMSAELKMRAHQAEER [I19H], for which the protein stability index worked out at 4.38.
Then FQTRQEMTSMSAELKMRALQAEER [I19L], with 4.08.
The value for FQTRQEMTSMSAELKMRAMQAEER [I19M] was 3.84; that for FQTRQEMTSMSAELKMRAYQAEER [I19Y] was 3.8.
Then FQTRQEMTSMSAELKMRAFQAEER [I19F], with 3.81; and FQTRQEMTSMSAELKMRAVQAEER [I19V], with 4.28.
